Assay [1] addresses T1, kappa-sCD40-Flag fusion protein, full length ECD amino acid residues 1-173 (human, UniProt P25942 21-193).
T1 construct: also called full length sCD40; not shown: N-terminal human kappa light chain; C-terminal Flag tag
As to the kind of experiment: ELISA, kappa-sCD40-Flag fusion captured on anti-Flag, anti-human IgG Fc-HRP.

The target in assay [2] is T2, kappa-sCD40-Flag fusion protein, fragment amino acids 1-94 (human, UniProt P25942 21-114).
T2 construct: also called sCD40aa 1-94; not shown: N-terminal human kappa light chain; C-terminal Flag tag
The description is as above.

Assay [3] addresses T3, kappa-sCD40-Flag fusion protein, fragment amino acids 36-130 (human, UniProt P25942 56-150).
T3 construct: not shown: N-terminal human kappa light chain; C-terminal Flag tag
Described as above.

The target in assay [4] is T4, kappa-sCD40-Flag fusion protein, fragment amino acids 84-173 (human, UniProt P25942 104-193).
T4 construct: not shown: N-terminal human kappa light chain; C-terminal Flag tag
The description is as above.

The target in assay [5] is T5, kappa-sCD40(1-94)-Flag mutant fragment A (multiple mutations of residues 1-5) (human, UniProt P25942 26-114).
T5 construct: The text says only multiple mutations of residues 1-5 (human to mouse differences); that mutant A carries exactly these is inferred; also called A (1-5); not shown: N-terminal human kappa light chain; C-terminal Flag tag
Described as above.

Assay [6] deals with T6, kappa-sCD40(1-94)-Flag mutant fragment D (multiple mutations of residues 33-36) (human, UniProt P25942 21-114).
T6 construct: The text says only multiple mutations of residues 33-36 (human to mouse differences); that mutant D carries exactly these is inferred; also called D (33-36); not shown: N-terminal human kappa light chain; C-terminal Flag tag
T6 chain: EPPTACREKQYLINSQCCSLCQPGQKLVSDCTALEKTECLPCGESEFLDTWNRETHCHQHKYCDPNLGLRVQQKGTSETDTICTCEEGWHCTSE
Described as above.

For assay [7], the target named is T7, kappa-sCD40(1-94)-Flag point mutant E1G (human, UniProt P25942 22-114).
T7 construct: not shown: N-terminal human kappa light chain; C-terminal Flag tag
The description is as above.

Assay [8] concerns the target T8, kappa-sCD40(1-94)-Flag point mutant P3S (human, UniProt P25942 21-114).
T8 construct: not shown: N-terminal human kappa light chain; C-terminal Flag tag
T8 chain: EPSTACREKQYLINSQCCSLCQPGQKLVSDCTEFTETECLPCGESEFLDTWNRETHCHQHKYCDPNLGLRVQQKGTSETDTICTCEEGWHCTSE
Described as above.

Assay [9] concerns the target T9, kappa-sCD40(1-94)-Flag point mutant T4V (human, UniProt P25942 21-114).
T9 construct: not shown: N-terminal human kappa light chain; C-terminal Flag tag
T9 chain: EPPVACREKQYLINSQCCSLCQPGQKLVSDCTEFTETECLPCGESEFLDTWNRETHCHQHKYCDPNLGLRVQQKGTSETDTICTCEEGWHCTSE
Described as above.

The target of assay [10] is T10, kappa-sCD40(1-94)-Flag point mutant A5T (human, UniProt P25942 21-114).
T10 construct: not shown: N-terminal human kappa light chain; C-terminal Flag tag
T10 chain: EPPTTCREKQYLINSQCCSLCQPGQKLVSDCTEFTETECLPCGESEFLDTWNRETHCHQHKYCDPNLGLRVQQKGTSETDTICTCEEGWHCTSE
Described as above.

Assay [11] has as its target T11, kappa-sCD40(1-94)-Flag point mutant E33A (human, UniProt P25942 21-114).
T11 construct: not shown: N-terminal human kappa light chain; C-terminal Flag tag
T11 chain: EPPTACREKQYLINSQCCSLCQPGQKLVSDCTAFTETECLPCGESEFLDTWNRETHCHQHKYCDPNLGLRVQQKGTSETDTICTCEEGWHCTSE
The description is as above.

For assay [12], the target named is T12, kappa-sCD40(1-94)-Flag point mutant F34L (human, UniProt P25942 21-114).
T12 construct: not shown: N-terminal human kappa light chain; C-terminal Flag tag
T12 chain: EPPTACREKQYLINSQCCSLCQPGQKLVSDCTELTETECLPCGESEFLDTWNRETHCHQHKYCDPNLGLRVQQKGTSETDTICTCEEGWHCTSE
The assay is described as above.

In assay [13] the target is T13, kappa-sCD40(1-94)-Flag point mutant T35E (human, UniProt P25942 21-114).
T13 construct: not shown: N-terminal human kappa light chain; C-terminal Flag tag
T13 chain: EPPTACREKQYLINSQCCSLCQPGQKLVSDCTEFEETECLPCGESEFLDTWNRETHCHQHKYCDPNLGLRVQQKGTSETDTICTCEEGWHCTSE
The assay is described as above.

The target of assay [14] is T14, kappa-sCD40(1-94)-Flag point mutant E36K (human, UniProt P25942 21-114).
T14 construct: not shown: N-terminal human kappa light chain; C-terminal Flag tag
T14 chain: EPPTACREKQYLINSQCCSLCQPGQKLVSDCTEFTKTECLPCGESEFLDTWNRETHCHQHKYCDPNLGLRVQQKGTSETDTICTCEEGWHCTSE
Described as above.

The target in assay [15] is T15, recombinant human CD40-Fc (human, UniProt P25942 21-193).
T15 construct: also called soluble recombinant human CD40/Fc chimera from R&D Systems; not shown: The antibody Fc domain of the R&D Systems chimera and any linker to it
As to the kind of experiment: ELISA on coated recombinant human CD40-Fc, detection anti-human IgG F(ab')2-HRP, OD 450-650. The protocol:
Microtiter plates were coated with recombinant human CD40-Fc in PBS, and then blocked with 5% bovine serum albumin in PBS. […] The plates were washed with PBS/Tween and then incubated with a goat-anti-human IgG F(ab′)2-specific polyclonal reagent conjugated to horseradish peroxidase at 37° C. After washing, the plates were developed with HRP substrate, and analyzed at OD 450-650 using a microtiter plate reader.

T4 sequence (P25942 104-193): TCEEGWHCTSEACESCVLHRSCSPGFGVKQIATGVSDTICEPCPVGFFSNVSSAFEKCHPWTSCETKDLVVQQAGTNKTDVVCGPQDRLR
T3 sequence (P25942 56-150): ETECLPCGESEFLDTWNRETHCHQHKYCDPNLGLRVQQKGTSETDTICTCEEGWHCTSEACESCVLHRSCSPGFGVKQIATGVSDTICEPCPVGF
T15 sequence (P25942 21-193 limits assumed, form in doubt): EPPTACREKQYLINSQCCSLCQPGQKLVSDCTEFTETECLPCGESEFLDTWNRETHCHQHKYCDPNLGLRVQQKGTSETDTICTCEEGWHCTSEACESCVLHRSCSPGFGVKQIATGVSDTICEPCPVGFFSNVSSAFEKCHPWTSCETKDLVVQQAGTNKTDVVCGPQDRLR

B1: anti-CD40 human monoclonal antibody 3C3 (antibody, human IgG2, kappa, V domains shown)
VH: QVQLVESGGGVVQPGRSLRLSCAGSGFIFSRYGMYWVRQAPGKGLEWVAVIWYDGSYKYYADSVKGRFTISRDNSKNTLYLQMNSLRAEDTAVYYCARESPWYYFDYWGQGTLVTVSS
VL: DIQMTQSPSSLSASVGDRVTITCRASQGISNYLAWYQQKPGKVPKLLIYAASTLQSGVPSRFSGSGSGTDFTLTISSLQPEDVATYYCQKYKSAPFTFGPGTKVDIKR
notes: Human IgG2, C-terminal lysine removed; also called anti-CD40 mAb 3C3; CD40 antibody 3C3
As for B1, the OD amounted to 2.36 OD 450-650 in assay [1]; 2.15 OD 450-650 in assay [2]; 0.029 OD 450-650 in assay [3]; 0.024 OD 450-650 in assay [4]; 0.25 OD 450-650 in assay [5]; 0.233 OD 450-650 in assay [6]. In addition, the OD in assay [7] was 2.01 OD 450-650; in assay [8] it was 2.01 OD 450-650; in assay [9] it was 2.21 OD 450-650; in assay [10], 1.51 OD 450-650; in assay [11], 1.7 OD 450-650; in assay [12] it was 1.84 OD 450-650. The OD in assay [13] stood at 2.1 OD 450-650; in assay [14], 1.69 OD 450-650. The “EC50 (read off the curve)” value in assay [15] is roughly 400 pM.

B2: anti-CD40 human monoclonal antibody 3G5 (antibody, human IgG2, V domains shown)
VH: QVQLVESGGGVVQPGKSLRLSCAASGFTFSSNGIHWVRQAPGKGLEWVAVIWSDGSNKFYADSVKGRFTISRDNSKNTLYLQMNSLRAEDTAVYYCARASGSGSYYNFFDYWGQGTLVTVSS
VL: EIVMTQSPATLSVSPGERATLSCRASQSVRSNLAWYQQKPGQAPRLLIYGASTRATGIPARFSGSGSGTEFTLTINSLQSEDFAVYYCQQHNKWITFGQGTRLEIK
notes: Human IgG2
In the case of B2, the OD was found to be 2.21 OD 450-650 in assay [1]; 2.17 OD 450-650 in [2]; 0.048 OD 450-650 in assay [3]; 0.038 OD 450-650 in assay [4]; 2.14 OD 450-650 in [5]; 0.042 OD 450-650 in [6]. Besides, the OD in assay [7] was 2.08 OD 450-650; in assay [8], 2.19 OD 450-650; in [9], 2.21 OD 450-650; in assay [10] it was 2.2 OD 450-650; in assay [11], 0.074 OD 450-650; in [12], 1.19 OD 450-650. Besides, the OD worked out at 2.13 OD 450-650 in assay [13] and 1.93 OD 450-650 in assay [14]. For the same molecule, the “EC50 (read off the curve)” value in assay [15] is roughly 400 pM.

The record behind these values is patent US20250115663A1 (CELLDEX THERAPEUTICS, published 2025).
